Measurements reported in patent US20250376539A1 (KIRA PHARMACEUTICALS SUZHOU, published 2025).

Experiments:
[1] = target: T1, recombinant human complement C2 (NP_000054.2), C-terminal 6His-tag, made in house (CHO cell expression) (human, UniProt P06681 21-752); test: binding kinetics, neutral pH (BLI presumed)
T1 construct: a linker before the tag is not described; also called human C2; Human C2
T1 sequence: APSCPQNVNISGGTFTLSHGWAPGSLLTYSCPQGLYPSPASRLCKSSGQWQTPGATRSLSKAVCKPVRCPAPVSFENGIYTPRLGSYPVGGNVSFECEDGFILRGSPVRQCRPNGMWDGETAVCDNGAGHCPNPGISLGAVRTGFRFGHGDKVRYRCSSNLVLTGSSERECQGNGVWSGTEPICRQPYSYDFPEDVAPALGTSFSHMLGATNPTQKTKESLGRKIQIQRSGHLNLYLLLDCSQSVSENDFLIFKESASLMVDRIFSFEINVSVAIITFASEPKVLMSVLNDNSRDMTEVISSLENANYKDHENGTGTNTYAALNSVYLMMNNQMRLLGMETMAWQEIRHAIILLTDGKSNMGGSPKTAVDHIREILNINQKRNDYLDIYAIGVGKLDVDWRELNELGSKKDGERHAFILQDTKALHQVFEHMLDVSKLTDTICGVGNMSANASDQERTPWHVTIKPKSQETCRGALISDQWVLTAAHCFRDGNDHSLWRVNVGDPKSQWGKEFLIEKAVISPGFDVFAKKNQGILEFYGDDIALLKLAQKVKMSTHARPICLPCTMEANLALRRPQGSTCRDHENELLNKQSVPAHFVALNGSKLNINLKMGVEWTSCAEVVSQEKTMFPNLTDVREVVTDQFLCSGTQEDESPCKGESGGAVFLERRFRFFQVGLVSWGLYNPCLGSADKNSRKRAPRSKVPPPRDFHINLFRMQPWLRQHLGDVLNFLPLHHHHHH

[2] = target: T1, recombinant human complement C2 …; test: BLI (Gator); ratio of dissociation at pH 5.8 to pH 7.4
Protocol: (§1) The histidine mutant constructs in Table 4 were tested for their pH-dependent dissociation from human C2. Probe-immobilized anti-C2 antibodies were incubated with C2 at pH 7.4 for 600s, followed by a 600s dissociation period in K Buffer at pH 7.4 or pH 5.8. The data were processed and analyzed by the Gator evaluation software.

[3] = target: T1, recombinant human complement C2 …; test: BLI (Gator), antibody on probe; 600 s association at pH 7.4, 600 s dissociation at pH 5.8
Protocol: as §1

[4] = target: T1, recombinant human complement C2 …; test: BLI (Gator), antibody on probe; 600 s association at pH 7.4, 600 s dissociation at pH 7.4
Protocol: as §1

Binder	Kd [1] [nM]	koff [1] [s⁻¹]	kon [1] [M⁻¹ s⁻¹]	Fold dissociation pH 5.8/pH 7.4 [2] [fold]	Dissociation (%) pH 5.8 [3] [%]	Dissociation (%) pH 7.4 [4] [%]
3.2 H2-10 × L1-2 (antibody, V domains shown, Histidine mutant of 3.2) VH: EVQLLESGGGLVQPGGSLRLSCAASGFTFRHYAMSWVRQAPGKGLEWVSLISGSGASTHYADSVKGRFTISRDNSENMLYLQMNSLRAEDTAVYYCAKDSLAVAGSEYFQHWGQGTLVTVSS VL: SYVLTQAPSVSVAPGQTARITCGHNYFGGKSVHWYQQRPGQAPVLVVYDDSDRPSGIPERFSGSKSGNTATLAISRVEAGDEAAYYCQVYDTSSDHWVFGGGTKLTVL	0.33	9.39e-05	284000	11.1	56.5	5.1
3.2 H2-10 × L3-6 (antibody, V domains shown, Histidine mutant of 3.2) VH: EVQLLESGGGLVQPGGSLRLSCAASGFTFRHYAMSWVRQAPGKGLEWVSLISGSGASTHYADSVKGRFTISRDNSENMLYLQMNSLRAEDTAVYYCAKDSLAVAGSEYFQHWGQGTLVTVSS VL: SYVLTQAPSVSVAPGQTARITCGGNYFGGKSVHWYQQRPGQAPVLVVYDDSDRPSGIPERFSGSKSGNTATLAISRVEAGDEAAYYCQVYDTHSDHWVFGGGTKLTVL	0.42	0.000119	283000	9	68.7	7.61
3.2 H2-10 × L1-5 (antibody, V domains shown, Histidine mutant of 3.2) VH: EVQLLESGGGLVQPGGSLRLSCAASGFTFRHYAMSWVRQAPGKGLEWVSLISGSGASTHYADSVKGRFTISRDNSENMLYLQMNSLRAEDTAVYYCAKDSLAVAGSEYFQHWGQGTLVTVSS VL: SYVLTQAPSVSVAPGQTARITCGGNYHGGKSVHWYQQRPGQAPVLVVYDDSDRPSGIPERFSGSKSGNTATLAISRVEAGDEAAYYCQVYDTSSDHWVFGGGTKLTVL	0.41	0.000112	272000	10.4	66.7	6.42
3.2 H2-10 × L1-4 (antibody, V domains shown, Histidine mutant of 3.2) VH: EVQLLESGGGLVQPGGSLRLSCAASGFTFRHYAMSWVRQAPGKGLEWVSLISGSGASTHYADSVKGRFTISRDNSENMLYLQMNSLRAEDTAVYYCAKDSLAVAGSEYFQHWGQGTLVTVSS VL: SYVLTQAPSVSVAPGQTARITCGGNHFGGKSVHWYQQRPGQAPVLVVYDDSDRPSGIPERFSGSKSGNTATLAISRVEAGDEAAYYCQVYDTSSDHWVFGGGTKLTVL	0.28	8.18e-05	293000	9.5	55.8	5.9
3.2 H2-10 × L1-10 (antibody, V domains shown, Histidine mutant of 3.2) VH: EVQLLESGGGLVQPGGSLRLSCAASGFTFRHYAMSWVRQAPGKGLEWVSLISGSGASTHYADSVKGRFTISRDNSENMLYLQMNSLRAEDTAVYYCAKDSLAVAGSEYFQHWGQGTLVTVSS VL: SYVLTQAPSVSVAPGQTARITCGGNYFGGKSHHWYQQRPGQAPVLVVYDDSDRPSGIPERFSGSKSGNTATLAISRVEAGDEAAYYCQVYDTSSDHWVFGGGTKLTVL	0.329	8.72e-05	265000	10.4	56.6	5.45
